We go through 125 sequences from the supplement of paper PMC9112550, “Optimization of the antimicrobial peptide Bac7 by deep mutational scanning” (BMC Biology, 2022).

The subject of this data set is Escherichia coli TOP10. Put plainly: shrunken log2 fold change of peptide-encoding DNA abundance (4.5 h post-induction vs induction); higher = less antimicrobial activity (less host growth inhibition). The following applies: time post-induction: 4.5 h; library: site-saturation at positions 5, 18, 19, 20.
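Note: peptides expressed intracellularly from a pBAD plasmid library in pooled LB shake-flask culture, induced with 0.3% L-arabinose, DNA abundance read by NGS, three biological replicates, DESeq2 with apeglm shrinkage.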

Regarding RRIRGRPPRLPRPRPRPKLHPRP, the “shrunken log2 fold change” value was 0.64.
To RRIRNRPPRLPRPRPRPMKKPRP belongs 0.00302; to RRIRYRPPRLPRPRPRPSLYPRP, -1; to RRIRQRPPRLPRPRPRPIPKPRP, -0.0574.
To RRIRNRPPRLPRPRPRPQFGPRP belongs -0.508; to RRIRNRPPRLPRPRPRPCCAPRP, -0.0874; to RRIRLRPPRLPRPRPRPQEVPRP, 0.0641.
To RRIRVRPPRLPRPRPRPWVYPRP belongs -0.137; to RRIRWRPPRLPRPRPRPIRIPRP, -0.324; to RRIRRRPPRLPRPRPRPLNRPRP, -0.169.
As for RRIRSRPPRLPRPRPRPTQQPRP, the “shrunken log2 fold change” value worked out at 0.138.
As for RRIRERPPRLPRPRPRPPECPRP, the “shrunken log2 fold change” value was determined as 0.0263.
To RRIRRRPPRLPRPRPRPINKPRP belongs -0.431; to RRIRNRPPRLPRPRPRPRNRPRP, -0.000801; to RRIRDRPPRLPRPRPRPRATPRP, 0.614.
As to RRIRCRPPRLPRPRPRPMEVPRP, the “shrunken log2 fold change” value turned out to be 0.015.
For the sequence RRIRCRPPRLPRPRPRPIEKPRP, the “shrunken log2 fold change” value is -0.0167.
For the sequence RRIRHRPPRLPRPRPRPKFSPRP, the “shrunken log2 fold change” value was -0.304.
To RRIRTRPPRLPRPRPRPRQSPRP belongs 0.159.
RRIRGRPPRLPRPRPRPWRNPRP: the “shrunken log2 fold change” value came to 0.297.
Take RRIRNRPPRLPRPRPRPDWSPRP: the “shrunken log2 fold change” value was -0.256.
To RRIRRRPPRLPRPRPRPVILPRP belongs -0.259.
For the sequence RRIRLRPPRLPRPRPRPVFGPRP, the “shrunken log2 fold change” value was determined as 0.0724.
To RRIRWRPPRLPRPRPRPASEPRP belongs 0.329; to RRIRRRPPRLPRPRPRPPQMPRP, 1.24; to RRIRCRPPRLPRPRPRPLDTPRP, -0.153.
To RRIRYRPPRLPRPRPRPDGRPRP belongs -0.154; to RRIRCRPPRLPRPRPRPRNLPRP, -0.222; to RRIRARPPRLPRPRPRPVFNPRP, -0.297.
To RRIRIRPPRLPRPRPRPNHPPRP belongs -0.469; to RRIRARPPRLPRPRPRPAPAPRP, 0.922; to RRIRERPPRLPRPRPRPTDQPRP, -0.127.
Consider RRIRNRPPRLPRPRPRPNKRPRP, for which the “shrunken log2 fold change” value is -0.221.
To RRIRTRPPRLPRPRPRPFFMPRP belongs -0.231.
To RRIRGRPPRLPRPRPRPEFNPRP belongs 0.669; to RRIRIRPPRLPRPRPRPFGRPRP, -0.0138.
To RRIRHRPPRLPRPRPRPSNAPRP belongs -0.38.
On to RRIRKRPPRLPRPRPRPQDLPRP, for which the “shrunken log2 fold change” value was -0.000826.
To RRIRLRPPRLPRPRPRPKQKPRP belongs 0.0979; to RRIRPRPPRLPRPRPRPWVPPRP, -0.228; to RRIRQRPPRLPRPRPRPDAQPRP, -9.3e-05.
To RRIRKRPPRLPRPRPRPFMSPRP belongs 0.0192.
As to RRIRARPPRLPRPRPRPPQRPRP, the “shrunken log2 fold change” value worked out at 1.16.
To RRIRARPPRLPRPRPRPWRVPRP belongs 0.12; to RRIRCRPPRLPRPRPRPFKMPRP, -0.854; to RRIRNRPPRLPRPRPRPHRIPRP, -0.0314.
RRIRQRPPRLPRPRPRPLAHPRP: the “shrunken log2 fold change” value is -0.0319.
As for RRIRLRPPRLPRPRPRPRLVPRP, the “shrunken log2 fold change” value was 0.0317.
To RRIRARPPRLPRPRPRPRLEPRP belongs 0.766.
To RRIRLRPPRLPRPRPRPPMQPRP belongs 0.189; to RRIRCRPPRLPRPRPRPAQQPRP, 0.342; to RRIRLRPPRLPRPRPRPPGVPRP, 0.426.
Regarding RRIRNRPPRLPRPRPRPLHGPRP, the “shrunken log2 fold change” value was -0.0305.
Turning to RRIRFRPPRLPRPRPRPVNEPRP, the “shrunken log2 fold change” value is -0.288.
To RRIRCRPPRLPRPRPRPSPSPRP belongs 0.128; to RRIRGRPPRLPRPRPRPGYRPRP, 0.189.
To RRIRYRPPRLPRPRPRPNPEPRP belongs -0.0105; to RRIRRRPPRLPRPRPRPERRPRP, 0.418.
RRIRDRPPRLPRPRPRPDFEPRP: the “shrunken log2 fold change” value was 1.35.
To RRIRPRPPRLPRPRPRPTQYPRP belongs 0.287.
To RRIRLRPPRLPRPRPRPPPLPRP belongs 1.12; to RRIRHRPPRLPRPRPRPCHTPRP, -0.0375.
To RRIRRRPPRLPRPRPRPNFEPRP belongs 0.413; to RRIRRRPPRLPRPRPRPELYPRP, 0.247.
Take RRIRERPPRLPRPRPRPVNYPRP: the “shrunken log2 fold change” value was -0.0115.
For the sequence RRIRMRPPRLPRPRPRPIEDPRP, the “shrunken log2 fold change” value turned out to be 0.224.
To RRIRERPPRLPRPRPRPRRMPRP belongs 0.119; to RRIRARPPRLPRPRPRPSREPRP, 0.816.
With RRIRPRPPRLPRPRPRPADTPRP, the “shrunken log2 fold change” value was 0.221.
On to RRIRERPPRLPRPRPRPFTIPRP, for which the “shrunken log2 fold change” value is -0.162.
To RRIRHRPPRLPRPRPRPNRIPRP belongs -0.46; to RRIRDRPPRLPRPRPRPFEYPRP, -0.00586.
To RRIRMRPPRLPRPRPRPVKRPRP belongs -0.0121; to RRIRFRPPRLPRPRPRPRKLPRP, 0.134.
To RRIRDRPPRLPRPRPRPGMCPRP belongs 0.432; to RRIRGRPPRLPRPRPRPCDKPRP, 0.297; to RRIRNRPPRLPRPRPRPICQPRP, -0.0999.
RRIRERPPRLPRPRPRPFGCPRP: the “shrunken log2 fold change” value was -0.0136.
To RRIRFRPPRLPRPRPRPFCYPRP belongs -0.372.
To RRIRVRPPRLPRPRPRPRPYPRP belongs 0.179; to RRIRHRPPRLPRPRPRPSWYPRP, -0.152.
To RRIRMRPPRLPRPRPRPLYTPRP belongs -0.116.
On to RRIRKRPPRLPRPRPRPSFSPRP, for which the “shrunken log2 fold change” value is -0.0191.
In the case of RRIRSRPPRLPRPRPRPSSGPRP, the “shrunken log2 fold change” value was -0.0991.
To RRIRGRPPRLPRPRPRPKTVPRP belongs 0.662.
To RRIRARPPRLPRPRPRPMKMPRP belongs 0.0994; to RRIRKRPPRLPRPRPRPQKLPRP, 0.015.
To RRIRSRPPRLPRPRPRPEDQPRP belongs 0.106; to RRIRDRPPRLPRPRPRPRVAPRP, 0.729.
For RRIRPRPPRLPRPRPRPIWIPRP, the “shrunken log2 fold change” value was -0.308.
To RRIRERPPRLPRPRPRPQTFPRP belongs -0.0695; to RRIRCRPPRLPRPRPRPAWPPRP, 0.895.
To RRIRVRPPRLPRPRPRPHWLPRP belongs -0.291; to RRIRKRPPRLPRPRPRPRVEPRP, 0.144.
For RRIRDRPPRLPRPRPRPTCQPRP, the “shrunken log2 fold change” value stood at 1.08.
Take RRIRFRPPRLPRPRPRPDRRPRP: the “shrunken log2 fold change” value is -0.39.
To RRIRWRPPRLPRPRPRPYIYPRP belongs -0.541; to RRIRQRPPRLPRPRPRPSKMPRP, -0.0686.
RRIRMRPPRLPRPRPRPMNFPRP: the “shrunken log2 fold change” value amounted to 0.032.
To RRIRFRPPRLPRPRPRPQVEPRP belongs -0.0419; to RRIRVRPPRLPRPRPRPDNIPRP, -0.714; to RRIRGRPPRLPRPRPRPFHFPRP, 0.119.
To RRIRYRPPRLPRPRPRPDVNPRP belongs -0.0115.
To RRIRGRPPRLPRPRPRPWNIPRP belongs -0.409; to RRIRERPPRLPRPRPRPQDGPRP, -0.113; to RRIRCRPPRLPRPRPRPVCGPRP, 0.268.
For the sequence RRIRMRPPRLPRPRPRPEIEPRP, the “shrunken log2 fold change” value was found to be 0.0729.
To RRIRRRPPRLPRPRPRPNKRPRP belongs -0.0621; to RRIRSRPPRLPRPRPRPYSYPRP, -0.393.
To RRIRVRPPRLPRPRPRPIIFPRP belongs -0.286.
To RRIRFRPPRLPRPRPRPKPDPRP belongs 0.463; to RRIRLRPPRLPRPRPRPCENPRP, 0.00489.
As to RRIRPRPPRLPRPRPRPVGFPRP, the “shrunken log2 fold change” value was determined as 0.37.
To RRIRMRPPRLPRPRPRPLCQPRP belongs 0.0549.
To RRIRVRPPRLPRPRPRPRGNPRP belongs 0.378.
To RRIRFRPPRLPRPRPRPTSNPRP belongs -0.617.
In the case of RRIRTRPPRLPRPRPRPQGGPRP, the “shrunken log2 fold change” value is 0.114.
To RRIRPRPPRLPRPRPRPCDDPRP belongs 0.0508; to RRIRTRPPRLPRPRPRPEQVPRP, -0.00471.
To RRIRGRPPRLPRPRPRPRPVPRP belongs 0.886; to RRIRGRPPRLPRPRPRPPGFPRP, 0.484.
To RRIRYRPPRLPRPRPRPVHIPRP belongs -0.526; to RRIRLRPPRLPRPRPRPKNFPRP, 0.492.
For RRIRVRPPRLPRPRPRPNTAPRP, the “shrunken log2 fold change” value was -0.147.
To RRIRTRPPRLPRPRPRPNGDPRP belongs -0.0598.
